The source of these data is PMC6598686 (Molecular cell, 2019).

The test deals with human linker histone H1.4 (human, UniProt P10412 1-219). Kind of test: pull-down.
Chain of human linker histone H1.4 (P10412 whole entry): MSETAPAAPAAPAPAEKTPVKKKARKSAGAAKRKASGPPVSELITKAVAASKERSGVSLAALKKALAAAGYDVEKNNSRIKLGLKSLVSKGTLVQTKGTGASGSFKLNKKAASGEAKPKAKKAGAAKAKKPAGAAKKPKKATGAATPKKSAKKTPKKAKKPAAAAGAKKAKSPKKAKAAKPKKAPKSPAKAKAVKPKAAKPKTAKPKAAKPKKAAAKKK

B1: His-tagged NAP1(160-312) (domain or fragment, human, UniProt P55209 160-312, looked up)
chain: EKEDPKGIPEFWLTVFKNVDLLSDMVQEHDEPILKHLKDIKVKFSDAGQPMSFVLEFHFEPNEYFTNEVLTKTYRMRSEPDDSDPFSFDGPEIMGCTGCQIDWKKGKNVTLKTIKKKQKHKGRGTVRTVTKTVSNDSFFNFFAPPEVPESGDL
On to B1, for which the binding result is “binds”.
